Laboratory results: US20200407397A1 (published 2020)

How the values were obtained:
recombinant LDHA [1] = target: T1, recombinant LDHA (human, UniProt P00338 1-332)
recombinant LDHA [2] = target: T1, recombinant LDHA; remark: listed apart in the source

Work on AQRMNTAFTP [FLCN-10 peptide] yielded an IC50 (recombinant LDHA [1]) of 82.2 nM and a Ki (recombinant LDHA [2]) of 57.4 nM.
